Test results published in patent US20220033460A1, “IDENTIFICATION AND USE OF T CELL EPITOPES IN DESIGNING DIAGNOSTIC AND THERAPEUTIC APPROACHES FOR COVID-19” (priority 2020, published 2022).
Read-outs that look alike come from different tables or passages of the source.

What was measured:
DRB1*07:01 [1] = conditions: modification not given
DRB1*15:01 [2] = conditions: modification not given
I-Ab (mouse), P14434 = target: T1, I-Ab (mouse), P14434; experiment: biochemically tested I-Ab binding affinity (method not told)
T1 chain 1: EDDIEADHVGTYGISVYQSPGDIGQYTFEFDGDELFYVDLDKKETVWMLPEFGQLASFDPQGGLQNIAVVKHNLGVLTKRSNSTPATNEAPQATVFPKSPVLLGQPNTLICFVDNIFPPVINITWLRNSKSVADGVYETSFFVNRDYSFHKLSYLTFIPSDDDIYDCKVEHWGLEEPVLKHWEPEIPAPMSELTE
T1 chain 2: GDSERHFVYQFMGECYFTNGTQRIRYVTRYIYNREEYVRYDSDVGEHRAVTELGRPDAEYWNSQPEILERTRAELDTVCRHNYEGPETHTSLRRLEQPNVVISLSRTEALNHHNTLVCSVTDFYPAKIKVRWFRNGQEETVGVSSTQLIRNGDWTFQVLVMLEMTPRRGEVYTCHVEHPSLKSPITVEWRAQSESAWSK

DRB01*11:01 = conditions: chains peptide; modification not given
DRB01*04:04 [3] = conditions: chains peptide; modification not given
DRB01*07:01 = conditions: chains peptide; modification not given
DRB01*15:01 [4] = conditions: chains peptide; modification not given
DRB1*15:01 [5] = conditions: modification not given; remark: listed apart in the source
DRB1*07:01 [6] = conditions: modification not given; remark: listed apart in the source
DRB01*04:04 [7] = conditions: chains peptide; modification not given; remark: listed apart in the source
DRB01*15:01 [8] = conditions: chains peptide; modification not given; remark: listed apart in the source
[9] = target: SARS-CoV-2 peptide on HLA-A*02:01 (human); experiment: barcoded tetramer library on ex vivo CD8+ T cells, single-cell sequencing; T cell clone or line; conditions: chains Valpha:Vbeta
[10] = target: M protein peptide on HLA-A*02:01 (human); experiment: as above; conditions: chains Valpha:Vbeta

AEIRASANLAATKMS [… (position 1016)]
IC50 (DRB1*07:01 [1]): 0.395 µM
IC50 (DRB1*15:01 [2]): 0.578 µM

AWENTTIDLTSEKPA (modifications not checked) […]
IC50 (I-Ab (mouse), P14434): 10 µM

GAVILRGHLRIAGHHLGR [SEQ ID NO 312]
IC50 (DRB01*11:01): 0.383 µM
IC50 (DRB01*04:04 [3]): 9.54 µM
IC50 (DRB01*07:01): 14.5 µM
IC50 (DRB01*15:01 [4]): 3.22 µM

STPCNGVEGFNCYFP [… (position 477)]
IC50 (DRB1*15:01 [5]): 6.82 µM

PQIITTDNTFVSGNC [… (position 1112)]
IC50 (DRB1*07:01 [6]): 7.37 µM

VILRGHLRIAGHHLGRCDIKDLP [SEQ ID NO 310]
IC50 (DRB01*04:04 [7]): 1.91 µM
IC50 (DRB01*15:01 [8]): 5.43 µM

B1: TCR_93 (protein)
chain 1: ILNVEQSPQSLHVQEGDSTNFTCSFPSSNFYALHWYRWETAKSPEALFVMTLNGDEKKKGRISATLNTKEGYSYLYIKGSQPEDSATYLCALDYGQNFVFGPGTRLSVLP
chain 2: DGGITQSPKYLFRKEGQNVTLSCEQNLNHDAMYWYRQDPGQGLRLIYYSQIVNDFQKGDIAEGYSVSREKKESFPLTVTSAQKNPTAFYLCASSIGSREAFFGQGTRLTVV
No. of Cells [9]: 2 cells

B2: TCR_74 (protein)
chain 1: GQNIDQPTEMTATEGAIVQINCTYQTSGFNGLFWYQQHAGEAPTFLSYNVLDGLEEKGRFSSFLSRSKGYSYLLLKELQMKDSASYLCAVRDLGGQKLLFARGTMLKVDL
chain 2: DAGVTQSPTHLIKTRGQQVTLRCSPKSGHDTVSWYQQALGQGPQFIFQYYEEEERQRGNFPDRFSGHQFPNYSSELNVNALLLGDSALYLCASSLGQGSPAGANVLTFGAGSRLTVL
No. of Cells [10]: 2 cells
